From the supplement of paper PMC9170038

Assays:
Details in all cases: FMN input: 0 or 200 uM; Eterna round: R93 (includes R88 designs)
MS2 coat protein [1] = assay: apparent KD of MS2 coat protein, switch ON state; designed switch direction (-1 OFF switch, 1 ON switch): 1; higher = weaker reporter binding
Outline: (§1)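 Apparent KD stands for the median, per design, of fits to normalised cluster binding curves. The curves came from titrating on-chip-transcribed RNA switches on Illumina sequencing clusters with SNAP-549-labelled MS2 coat protein, twofold from 0.7 or 1.5 nM to 3 µM. Buffer was 100 mM Tris-HCl pH 7.5, 80 mM KCl, 4 mM MgCl2, without or with constant ligand.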

MS2 coat protein [2] = assay: apparent KD of MS2 coat protein, switch OFF state (with FMN for OFF switches, without FMN for ON switches); designed switch direction (-1 OFF switch, 1 ON switch): 1; higher = weaker reporter binding
Outline: as §1

MS2 coat protein [3] = assay: apparent KD of MS2 coat protein, switch ON state; designed switch direction (-1 OFF switch, 1 ON switch): -1; higher = weaker reporter binding
Outline: as §1

MS2 coat protein [4] = assay: apparent KD of MS2 coat protein, switch OFF state (with FMN for OFF switches, without FMN for ON switches); designed switch direction (-1 OFF switch, 1 ON switch): -1; higher = weaker reporter binding
Outline: as §1

Row | Sequence | apparent KD of MS2 coat protein (MS2 coat protein [1]) [nM] | apparent KD of MS2 coat protein (MS2 coat protein [2]) [nM] | apparent KD of MS2 coat protein (MS2 coat protein [3]) [nM] | apparent KD of MS2 coat protein (MS2 coat protein [4]) [nM]
1 | GGCAGUCCGACACAGGAUAUGGGUAACGAAACAUGAGGAUCACCCAUGUGGAAACAUCGGGUUGCCUAGAAGGGUGGAAAGAUUG [Xeti] | 26.4 | 259 | – | –
2 | AGAAAUAAAAGAGAGGAUAUCCAAAAAGGGACAUGAGGAUCACCCAUGUAAAAGAAAAUAAAAUGGGAGAAGGCUCAAAAUAAAG [80%, More Helter Skelter 2] | 97.3 | 120 | – | –
3 | AACAAUCUAUCUGAGGAUAUGUGUCGAAAGACAUGAGGAUCACCCAUGUAAAAACAUGGAAAAUCACAGAAGGCAGAUAGAUUGA [SS2: 1145] | 127 | 1790 | – | –
4 | AAAACACAUGAGGAUCACCCAUGUAGAAAUACGGGAGGAUAUGCAAAAACGAAAGACAAAGUAGAAGGCCUAAAAG [saturn 9] | 26.2 | 67 | – | –
5 | CAUAGACAUGAGGAUCACCCAUGUAGAAUUAUGGGAGGAUAUACAAAGACGAGAGUCAGAGUAGAAGGCCUAGGAG [salish99-ss1-163] | 24.4 | 34 | – | –
6 | AGAAAUAAAGGAGAGGAUAUCCAAAAGAAAACAUGAGGAUCACCCAUGUAAAAGAAAAUAAAGUGGGAGAAGGCUUCAAAUAAGA [Starry modified V5] | 18.7 | 45.2 | – | –
7 | ACUAUACAUGAGGAUCACCCAUGUUAGGUGGGACUAGGAUAUCAAAAGCCAGAGUAAGAAUGAGAAGGAGUAGAAA [JR_SS001_Sub301] | 32.8 | 34.8 | – | –
8 | AAAAAACAUGAGGAUCACCCAUGUAGAAAUAUGGGAGGAUAUACAAAGACGAAAGUCAAAGUAGAAGGCCUAAAAA [77%, Mat - Mod of Eli, 2] | 18.2 | 57.8 | – | –
9 | AAAGACAUAGUUCAGGAUAUGGUAAUAGUCACAUGAGGAUCACCCAUGUGCAUUUAUAUGCGCGAUCAGAAGGGAGGUAGAUAAA [SameState2 Malc#17] | 24.9 | 21.5 | – | –
10 | AGAAAACAUGAGGAUCACCCAUGUAGAAAUAUGGGAGGAUAUACAAAGACGAAAGUCAAAGUAGAAGGCCUAAAAG [Mat - Same State 1 - Eli mod - 35] | 23.2 | 78.3 | – | –
11 | AAAACACAUGAGGAUCACCCAUGUCAAAAAAACACAGGAUAUCCAAAAAAAAAAAAAAAAGGAGAAGGGUGAAAAA [high kcal] | 65 | 42 | – | –
12 | AGAAAACAUGAGGAUCACCCAUGUGACAAUAUGGGAGGAUAUACCAAGACGAAAGUCGAAGUAGAAGGCCUAAAGA [Garnet 51] | 22.9 | 69.8 | – | –
13 | AAAUAAAUGACUGAGGAUAUAUCGAUGAAAACAUGAGGAUCACCCAUGUGAUAAUAAAAAGGGUGAUAGAAGGUAGUCAACAAAC [Mod 11 of Pariah 4 by Hyphema in Round 1] | 52.1 | 211 | – | –
14 | UCCUUACAUGAGGAUCACCCAUGUCGCAGGAAUCAAGGAUAUGGGACCGCAAUGCGGAAACCAGAAGGUGACAAAA [Zaesor] | 158 | 322 | – | –
15 | AAUACCACUAGCAAGGAUAUCUAAAACGAAACAUGAGGAUCACCCAUGUGACGACCACACGUAUCAGAGAAGGUGCAGGGUGAAU [JR_SS002_Sub306] | 24.2 | 24 | – | –
16 | AAGUCACAUGAGGAUCACCCAUGUCGUAAACGAUGAGGAUAUAGGAAGAAAAAAAAAAAACUAGAAGGUAUUACAA [SameState1-02] | 32.5 | 28.6 | – | –
17 | GAAAAACAUGAGGAUCACCCAUGUGGAAAUAUGGGAGGAUAUACGAAGACGAAAGUCGAAGUAGAAGGCCUAAAAG [Same State 1.4d (Mat - Mod of Eli - )] | 29.5 | 98.1 | – | –
18 | AAUAAACAUGAGGAUCACCCAUGUACCUACCACUAAGGAUAUGGGCGAAUAACAGCUCGGCCAGAAGGUAGAGGUG [Onususer] | 116 | 82.9 | – | –
19 | UAGAGAACAGGGUAGGAUAUGCAUGGUCGUACAUGAGGAUCACCCAUGUAGUCUAGAAAAUAAAUGCAGAAGGACCAAAAGAAAA [Edsodiin] | 15.6 | 32 | – | –
20 | AAGGCACAUGAGGAUCACCCAUGUUAGCCGCGACGAGGAUAUGGGAACGCGUCAGCGGAAUUAGAAGGUGUGGUGA [Qusoquan] | 35.6 | 37.8 | – | –
21 | AUAUAUAUAAGACAGGAUAUCCUAAAGUAAACAUGAGGAUCACCCAUGUAAAGAAAGAAACUCAUGGAGAAGGGUCAAUAUAUAU [Mat - Same State 2 - Tesla mod - D81] | 14.1 | 48.6 | – | –

Row | Sequence | apparent KD of MS2 coat protein (MS2 coat protein [1]) [nM] | apparent KD of MS2 coat protein (MS2 coat protein [2]) [nM] | apparent KD of MS2 coat protein (MS2 coat protein [3]) [nM] | apparent KD of MS2 coat protein (MS2 coat protein [4]) [nM]
22 | AAAAAACAUGAGGAUCACCCAUGUAAAAAUAUGGGAGGAUAUGCGAAAAGAAACAAAGAAGCAGAAGGCCUAAAAA [75%, Ex5 sub 1, 8] | 25.6 | 185 | – | –
23 | AAAAGACAUGAGGAUCACCCAUGUAAAGACGUGGGAGGAUAUGUAUGGAAACCAGACUGUACAGAAGGCCUCUGUC [SS1 - 72] | 165 | 243 | – | –
24 | AAUAUAUUAAGUGAGGAUAUCGAGGAAAAAACAUGAGGAUCACCCAUGUGGGAAACAUGGUCGGGUGAGAAGGCACUUAAUAUAU [Samwise Clockwise 25 - Jieux - Same State 2] | 125 | 326 | – | –
25 | CUCAAGUUAGGAUAUUCAAGAAAAGAAGAGAAAGAAAAGAAGAAGAAGGAACAUGAGGAUCACCCAUGUAAGAA [EteRNA is fun!] | – | – | 53.8 | 26
26 | AACAGUACAGGAUAUACAUGAGGAUCACCCAUGUGAAAAUUAAGUGGGAAACCACAAGGUAGAAGGGUACUGGA [Mat - Exclusion 3 - Eli mod - D64] | – | – | 27.1 | 157
27 | GAAUGUCUAGGAUAUACAUGAGGAUCACCCAUGUGUAAAAAUAAAUACACAAAAGAAAGUAGAAGGAGACAAAG [Mat - Exclusion 3 - Mayanna mod - D122] | – | – | 28.5 | 46.5
28 | GCUGUCCAAGGAUAUACAUGAGGAUCACCCAUGUGAGAGAAAAAAGUGAGAAAGAAAAGUAGAAGGUGGGUAGG [salish99-ex3-103] | – | – | 31.6 | 56.6
29 | AAGGGACAUGAGGAUCACCCAUGUCAGGAUAUGAUGCGAAUAAAGAAAGAAGAAAGCAUCAGAAGGGACGCCAA [58%, Disencluded 3, 5] | – | – | 25.4 | 39.5
30 | AAAAAACAUGAGGAUCACCCAUGUAAGGAUAUCUAAAAUAAAAGAAAAAUAAAGAAAAGGAGAAGGUACAAGGA [JL wbt mod 25] | – | – | 13.8 | 32.6
31 | GAAUACCUAGGAUAUACAUGAGGAUCACCCAUGUCAGUAGACUGGGAAAAGUCUCUCAGUAGAAGGAGGACCAG [Anaran] | – | – | 192 | 233
32 | AUAAUGUCAGGAUAUCAGUAGUAAAAAAAAAAAAUUACUACUGAGAAGGGACAUGAGGAUCACCCAUGUCAAAA [EX4 307: Super Stable 7] | – | – | 27.6 | 24.9
33 | AAAAAGCUAGGAUAUACGAAAAAAAAGGGUAGAAAAAAAAAACAUGAGGAUCACCCAUGUAGAAGGAGCAAAAA [Mat - Exclusion 2 - Tesla mod - D34] | – | – | 51.5 | 103
34 | AAGUUAUUAGGAUAUACUUGUGCGAUUAAUACGCUGAUAGUACAUGAGGAUCACCCAUGUAGAAGGAAUAAAAA [JR_Exc002_Sub410] | – | – | 33.4 | 21.2
35 | AAUAAACAUGAGGAUCACCCAUGUCAGGAUAUGCACAAACAAACAAACAAACAAGCAAGCAGAAGGGACACUAC [Amethyst 88] | – | – | 25.4 | 28.6
36 | AAGAAGUGAGGAUAUGCUGCUCGUCACAAAAGUGAUGAGUAGCAGAAGGCACAUGAGGAUCACCCAUGUAAAGA [JL eternac mod 1] | – | – | 40.6 | 48.8
37 | AACAAGUCAGGAUAUGCGAAAAGAAAAUAAGAUACACAAAAGCAGAAGGGACAUGAGGAUCACCCAUGUAAAUA [JR_Exc004_Sub011] | – | – | 36 | 33.1
38 | AGGAAACAUGAGGAUCACCCAUGUGAGGAUAUUGAAAAGAAAAGAAAAGAAAGAAGAACAAGAAGGUACAAGAA [Nyuserre Ini] | – | – | 22.3 | 27.3
39 | AGCUACUGAGGAUAUACGAACAUGUCAAAAGACGUAAGGGAACAUGAGGAUCACCCAUGUAGAAGGCAGUAGCA [Diamond 49] | – | – | 44.5 | 91.9
40 | GGUUGGCGAGGAUAUACAUGAGGAUCACCCAUGUGAGAGAAAAAAGUGAGAAAGCAAAGUAGAAGGCGCUGACG [salish99-ex3-27] | – | – | 51.4 | 321
41 | AACUGACAUGAGGAUCACCCAUGUCAGGAUAUGACAUCGAAAAAAAAAAAAAUCGUUGUCAGAAGGGACAUGAA [Design 77: Sub-opt SB] | – | – | 16.7 | 13.1
42 | CAGUACUGAGGAUAUACAUGAGGAUCACCCAUGUGGUUAAGCUAGGAAACUAGCACAUGUAGAAGGCAGUACUG [Ex3: 814] | – | – | 50.1 | 19.5
